Measured values taken from PMC4159076 (Cell reports, 2013).

What was measured:
[1] = molecular target: NPM (Flag-NPM / GST-NPM constructs) (UniProt P06748); assay: GST pull-down, anti-Flag western blot; settings: reference: Flag-NPM wild type; sites S125
[2] = molecular target: endogenous NPM (human cells) (human (endogenous in HEK293)) (UniProt P06748); assay: denaturing gel electrophoresis with western blot
[3] = molecular target: the molecule itself; assay: denaturing gel electrophoresis with western blot

## NPM (Flag-NPM / GST-NPM constructs) (from UniProt P06748) Flag-NPM S125A
[1]
  binding against the reference: weaker

## endogenous NPM (human cells) (from UniProt P06748 1-294) (natural protein)
[2]
  stoichiometry N: 6

B1: nucleophosmin (NPM) (endogenous, mouse cells) (natural protein, UniProt Q61937 1-292, looked up)
chain: MEDSMDMDMSPLRPQNYLFGCELKADKDYHFKVDNDENEHQLSLRTVSLGAGAKDELHIVEAEAMNYEGSPIKVTLATLKMSVQPTVSLGGFEITPPVVLRLKCGSGPVHISGQHLVAVEEDAESEDEDEEDVKLLGMSGKRSAPGGGNKVPQKKVKLDEDDEDDDEDDEDDEDDDDDDFDEEETEEKVPVKKSVRDTPAKNAQKSNQNGKDLKPSTPRSKGQESFKKQEKTPKTPKGPSSVEDIKAKMQASIEKGGSLPKVEAKFINYVKNCFRMTDQEAIQDLWQWRKSL
[3]
  stoichiometry N: 6
